Laboratory results taken from PMC13147308 (2025).

Key:
Experiment in all cases: ITC; Tris buffer
[1] = molecular target: T1, Staphylococcus aureus Cas9, full length, His-tagged (Staphylococcus aureus, UniProt J7RUA5 1-1053)
T1 chain: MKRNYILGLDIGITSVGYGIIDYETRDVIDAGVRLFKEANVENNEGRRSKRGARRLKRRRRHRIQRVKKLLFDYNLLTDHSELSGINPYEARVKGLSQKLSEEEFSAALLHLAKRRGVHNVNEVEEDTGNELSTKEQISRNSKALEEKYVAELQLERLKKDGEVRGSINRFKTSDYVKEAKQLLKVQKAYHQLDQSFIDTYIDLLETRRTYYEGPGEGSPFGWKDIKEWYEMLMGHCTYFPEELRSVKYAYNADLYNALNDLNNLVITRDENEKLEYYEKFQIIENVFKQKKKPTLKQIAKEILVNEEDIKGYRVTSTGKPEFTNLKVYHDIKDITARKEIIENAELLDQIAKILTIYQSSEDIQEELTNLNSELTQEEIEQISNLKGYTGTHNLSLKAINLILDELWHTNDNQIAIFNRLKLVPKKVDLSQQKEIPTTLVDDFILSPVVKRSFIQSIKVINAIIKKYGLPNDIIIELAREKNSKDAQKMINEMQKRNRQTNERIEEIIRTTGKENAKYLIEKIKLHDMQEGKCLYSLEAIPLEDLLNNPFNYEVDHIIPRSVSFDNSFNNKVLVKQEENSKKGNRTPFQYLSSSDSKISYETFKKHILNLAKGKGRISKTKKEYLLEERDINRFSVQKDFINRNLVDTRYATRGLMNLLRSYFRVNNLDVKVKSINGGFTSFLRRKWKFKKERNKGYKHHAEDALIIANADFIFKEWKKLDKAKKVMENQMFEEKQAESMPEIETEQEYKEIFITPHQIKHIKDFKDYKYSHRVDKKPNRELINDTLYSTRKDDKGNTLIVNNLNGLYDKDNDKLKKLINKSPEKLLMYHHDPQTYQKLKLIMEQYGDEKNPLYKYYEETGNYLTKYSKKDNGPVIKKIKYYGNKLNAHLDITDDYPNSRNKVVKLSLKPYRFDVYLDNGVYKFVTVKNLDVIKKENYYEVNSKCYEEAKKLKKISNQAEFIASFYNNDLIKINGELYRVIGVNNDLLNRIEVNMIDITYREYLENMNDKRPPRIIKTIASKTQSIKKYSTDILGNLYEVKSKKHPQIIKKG

[2] = molecular target: T2, SauCas9 PI (PAM-interacting) domain, His-tagged (Staphylococcus aureus)
T2 chain: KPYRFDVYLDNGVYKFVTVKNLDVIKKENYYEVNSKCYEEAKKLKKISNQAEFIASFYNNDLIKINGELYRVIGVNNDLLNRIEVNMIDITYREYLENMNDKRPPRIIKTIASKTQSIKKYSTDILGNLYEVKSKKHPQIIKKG

[3] = molecular target: T3, SauCas9 WED-PI domain construct, His-tagged (Staphylococcus aureus)
T3 chain: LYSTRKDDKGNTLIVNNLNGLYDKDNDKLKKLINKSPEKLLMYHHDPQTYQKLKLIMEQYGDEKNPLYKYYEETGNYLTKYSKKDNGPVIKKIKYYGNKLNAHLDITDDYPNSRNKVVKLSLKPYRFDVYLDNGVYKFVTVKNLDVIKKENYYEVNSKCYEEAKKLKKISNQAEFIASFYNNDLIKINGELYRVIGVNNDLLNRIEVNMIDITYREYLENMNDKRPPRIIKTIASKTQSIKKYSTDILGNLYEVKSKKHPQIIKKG

[4] = molecular target: T4, SauCas9 WED (wedge-like) domain, His-tagged (Staphylococcus aureus)
T4 chain: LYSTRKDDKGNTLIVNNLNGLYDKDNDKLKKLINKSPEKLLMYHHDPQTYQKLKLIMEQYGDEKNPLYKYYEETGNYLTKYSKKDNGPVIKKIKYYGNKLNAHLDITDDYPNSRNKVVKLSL

B1: Staphylococcus haemolyticus AcrIIA13b, wild type, with C-terminal 6xHis tag (natural protein)
chain: MNELNNKMIEDVVLGEVELIEDLGQYFIDIEGDYEYNVEFATLSEVDYKVCALYEVATSKTYEVPYHDKLEKEDMKLFYDKWLEKDQQEETYIESVFFVNREDAESYIKDVLKGKESLTEVAAEIGYFELEHHHHHH
Work on B1 yielded a Kd [1] of 6.15 µM, a Kd [2] of 3.83 µM and a Kd [3] of 1.61 µM. For the same binder, the Kd [4] was 8.17 µM.
